To fix the notation:
B1: ZNF263 (parent)
chain: LLRHQRIHTGERPYKCPECGKSFS
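Note: lentivirally expressed fusions sorted by FACS into six bins by GFP to DsRed ratio, PSI derived from sequencing read proportions per bin multiplied by bin number.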

The data set covers variants of B1. As to the kind of experiment: protein stability index of a GFP-peptide fusion (GPS, HEK-293T) (PSI 1-6); higher = more stable. Particulars: c terminus: a fixed tail appended.
Consider LLRHQRIHTGGRPYKCPECGKSFS [E11G], for which the protein stability index came to 2.63. The same measure for LLRHQRIHTGTRPYKCPECGKSFS [E11T]: 2.51.

In the case of LLRHQRIHTGDRPYKCPECGKSFS [E11D], the protein stability index was 2.34.

Take LLRHQRIHTGARPYKCPECGKSFS [E11A]: the protein stability index was found to be 2.26.

With LLRHQRIHTGYRPYKCPECGKSFS [E11Y], the protein stability index came out at 1.88. The figure for LLRHQRIHTGSRPYKCPECGKSFS [E11S] is 2.34; for LLRHQRIHTGWRPYKCPECGKSFS [E11W] it is 2.01. The figure for LLRHQRIHTGRRPYKCPECGKSFS [E11R] is 3.3. As to LLRHQRIHTGMRPYKCPECGKSFS [E11M], the protein stability index worked out at 1.99. The figure for LLRHQRIHTGQRPYKCPECGKSFS [E11Q] is 2.51; for LLRHQRGHTGERPYKCPECGKSFS [I7G] it is 2.48. The figure for LLRHQRPHTGERPYKCPECGKSFS [I7P] is 2.56. On to LLRHQRRHTGERPYKCPECGKSFS [I7R], for which the protein stability index amounted to 2.55. LLRHQRLHTGERPYKCPECGKSFS [I7L]: the protein stability index is 1.94. The figure for LLRHQRHHTGERPYKCPECGKSFS [I7H] is 2.68. The same measure for LLRHQRFHTGERPYKCPECGKSFS [I7F]: 2.79; for LLRHQREHTGERPYKCPECGKSFS [I7E]: 2.64. The figure for LLRHQRIHMGERPYKCPECGKSFS [T9M] is 2.21. Turning to LLRHQRIHRGERPYKCPECGKSFS [T9R], the protein stability index stood at 2.14. The figure for LLRHQRIHPGERPYKCPECGKSFS [T9P] is 2.45; for LLRHQRIHVGERPYKCPECGKSFS [T9V] it is 2.34; for LLRHQRIHYGERPYKCPECGKSFS [T9Y] it is 2.56. The same measure for LLRHQRIHNGERPYKCPECGKSFS [T9N]: 2.07. The same measure for LLRHQRIHKGERPYKCPECGKSFS [T9K]: 2.41; for LLRHQYIHTGERPYKCPECGKSFS [R6Y]: 1.91. Consider LLRHQQIHTGERPYKCPECGKSFS [R6Q], for which the protein stability index is 2.53. The same measure for LLRHQVIHTGERPYKCPECGKSFS [R6V]: 2.78; for LLRHQNIHTGERPYKCPECGKSFS [R6N]: 2.59; for LLRMQRIHTGERPYKCPECGKSFS [H4M]: 1.73. The figure for LLRNQRIHTGERPYKCPECGKSFS [H4N] is 2.24; for LLRGQRIHTGERPYKCPECGKSFS [H4G] it is 2.99. The same measure for LLRPQRIHTGERPYKCPECGKSFS [H4P]: 2.25; for LLRRQRIHTGERPYKCPECGKSFS [H4R]: 3.38; for LLREQRIHTGERPYKCPECGKSFS [H4E]: 2.81. With LLRCQRIHTGERPYKCPECGKSFS [H4C], the protein stability index amounted to 3.89.

As to LLRHQRIHTGERPYKCPECGKSPS [F23P], the protein stability index is 3.39.

In the case of LLRHQRIHTGERPYKCPECGKSVS [F23V], the protein stability index worked out at 2.53. The figure for LLRHQRIHTGERPYKCPECGKSLS [F23L] is 2.14; for LLRHQRIHTGERPYKCPECGKSHS [F23H] it is 3.64.

LLRHQRIHTGERPYKCPECGKSGS [F23G]: the protein stability index amounted to 2.75. The figure for LLRHQRIHTGERPYKFPECGKSFS [C16F] is 2.48. The figure for LLRHQRIHTGERPYKRPECGKSFS [C16R] is 3.74; for LLRHQRIHTGERPLKCPECGKSFS [Y14L] it is 2.48; for LLRHQRIHTGERPNKCPECGKSFS [Y14N] it is 2.39.

Consider LLRHQRIHTGERPWKCPECGKSFS [Y14W], for which the protein stability index is 2.35. The same measure for LLRHQRIHTGERPPKCPECGKSFS [Y14P]: 2.09; for LLRHQRIHTGERPVKCPECGKSFS [Y14V]: 2.38; for LLRHQRIHTGERPDKCPECGKSFS [Y14D]: 2.24. The same measure for LLRHQRIHTGERPYKCPERGKSFS [C19R]: 3.57. The same measure for LLRHQRIHTGERPYKCPEFGKSFS [C19F]: 2.12; for LLRHQRIHTGERPYKCPESGKSFS [C19S]: 2.45; for LLRHQRIHTGERPYKCPEGGKSFS [C19G]: 3.3. With LLRHQRIHTGERPYKCPEAGKSFS [C19A], the protein stability index was 3.18. The same measure for LLRHQRIHTGERPYKCPEVGKSFS [C19V]: 3.08; for LLRHQRIHTGERPYKCPEEGKSFS [C19E]: 3.31; for LLRHQRIHTGERPYKCPEQGKSFS [C19Q]: 3.3.

With LLRHQRIHTGERPYKCPEKGKSFS [C19K], the protein stability index amounted to 3.08. The same measure for LLRHQRIHTGERPYKCQECGKSFS [P17Q]: 2.78; for LLRHQRIHTGERPYKCSECGKSFS [P17S]: 1.66. As for LLRHQRIHTGERPYKCVECGKSFS [P17V], the protein stability index amounted to 2.05. The same measure for LLRHQRIHTGERPYKCFECGKSFS [P17F]: 1.94; for LLRHQRIHTGERPYKCIECGKSFS [P17I]: 2.6; for LLRHQRIHTGERPYKCAECGKSFS [P17A]: 1.83. As for LLRHQRIHTGERPYCCPECGKSFS [K15C], the protein stability index is 2.16. The figure for LLRHQRIHTGERPYECPECGKSFS [K15E] is 2.66; for LLRHQRIHTGERPYNCPECGKSFS [K15N] it is 2.19. Turning to LLRHQRIHTGERPYGCPECGKSFS [K15G], the protein stability index was determined as 2.62. The figure for LLRHQRIHTGERPYKCPECGKQFS [S22Q] is 2.5; for LLRHQRIHTGERPYKCPECGKAFS [S22A] it is 2.41; for LLRHQRIHTGERPYKCPECGKLFS [S22L] it is 1.92. The figure for LLRHQRIHTGERPYKCPECGKRFS [S22R] is 2.4; for LLRHQRIHTGERPYKCPECGKWFS [S22W] it is 2.09; for LLRHQRIHTGERPYKCPECGKFFS [S22F] it is 2.2. As for LLRHQRIHTGERPYKCPECGKDFS [S22D], the protein stability index is 1.63. In the case of ALRHQRIHTGERPYKCPECGKSFS [L1A], the protein stability index turned out to be 2.82. For DLRHQRIHTGERPYKCPECGKSFS [L1D], the protein stability index amounted to 2.62. The figure for KLRHQRIHTGERPYKCPECGKSFS [L1K] is 3.58; for PLRHQRIHTGERPYKCPECGKSFS [L1P] it is 2.83; for TLRHQRIHTGERPYKCPECGKSFS [L1T] it is 2.9.

Take YLRHQRIHTGERPYKCPECGKSFS [L1Y]: the protein stability index stood at 3.07. The figure for CLRHQRIHTGERPYKCPECGKSFS [L1C] is 4.12. Turning to LLRHQRIHTGERPYKCPECGKSFV [S24V], the protein stability index came to 2.62. The same measure for LLRHQRIHTGERPYKCPECGKSFM [S24M]: 2.28; for LLRHQRIHTGERPYKCPECGKSFL [S24L]: 2.43. The figure for LLRHQRIHTGERPYKCPECGKSFF [S24F] is 2.01; for LLRHQRIHTGERPYKCPECGKSFP [S24P] it is 2.24; for LLRHQRIHTGERPYKCPECNKSFS [G20N] it is 2.35.

As for LLRHQRIHTGERPYKCPECLKSFS [G20L], the protein stability index was found to be 1.66. The figure for LLRHQRIHTGERPYKCPECKKSFS [G20K] is 2.27; for LLRHQRIHTGERPYKCPECYKSFS [G20Y] it is 1.76. Take LLRHQRIHTGERPYKCPECFKSFS [G20F]: the protein stability index came out at 2.99. LLRHQRIHTGERPYKCPECVKSFS [G20V]: the protein stability index amounted to 2.42. On to LLRHQRIHTGERPYKCPFCGKSFS [E18F], for which the protein stability index is 2.48. LLRHQRIHTGERPYKCPWCGKSFS [E18W]: the protein stability index was determined as 3.24. The figure for LLRHQRIHTGERPYKCPICGKSFS [E18I] is 2.42; for LLRHQRIHTGERPYKCPVCGKSFS [E18V] it is 2.15. LLRHQRIHTGERPYKCPMCGKSFS [E18M]: the protein stability index is 2.46. The same measure for LLRHQRIHTGERPYKCPNCGKSFS [E18N]: 2.24. Consider LLRHQRIHTGERPYKCPSCGKSFS [E18S], for which the protein stability index stood at 2.25. The same measure for LLRHQRIHTGERPYKCPPCGKSFS [E18P]: 2.37. The figure for LLRHQRIHTGERPYKCPGCGKSFS [E18G] is 2.3. The figure for LLRHQRIHTGERPYKCPDCGKSFS [E18D] is 1.96; for LLIHQRIHTGERPYKCPECGKSFS [R3I] it is 2.25; for LLSHQRIHTGERPYKCPECGKSFS [R3S] it is 2.81. Regarding LLDHQRIHTGERPYKCPECGKSFS [R3D], the protein stability index was found to be 3.77. The figure for LLGHQRIHTGERPYKCPECGKSFS [R3G] is 2.68; for LLRHQRITTGERPYKCPECGKSFS [H8T] it is 2; for LLRHQRIATGERPYKCPECGKSFS [H8A] it is 1.86. For LLRHQRIPTGERPYKCPECGKSFS [H8P], the protein stability index was determined as 3.3. The same measure for LLRHQRILTGERPYKCPECGKSFS [H8L]: 1.85; for LLRHQRIETGERPYKCPECGKSFS [H8E]: 2.52; for LLRHQRIDTGERPYKCPECGKSFS [H8D]: 2.53.

Regarding LLRHQRIKTGERPYKCPECGKSFS [H8K], the protein stability index came out at 2.44. For LLRHVRIHTGERPYKCPECGKSFS [Q5V], the protein stability index amounted to 1.74. The same measure for LLRHTRIHTGERPYKCPECGKSFS [Q5T]: 2.82; for LLRHLRIHTGERPYKCPECGKSFS [Q5L]: 2.4; for LLRHCRIHTGERPYKCPECGKSFS [Q5C]: 1.95. The figure for LLRHARIHTGERPYKCPECGKSFS [Q5A] is 2.63. The figure for LLRHERIHTGERPYKCPECGKSFS [Q5E] is 3.06; for LLRHQRIHTNERPYKCPECGKSFS [G10N] it is 3.12; for LLRHQRIHTCERPYKCPECGKSFS [G10C] it is 2.49. As to LLRHQRIHTQERPYKCPECGKSFS [G10Q], the protein stability index was 2.86. For LLRHQRIHTRERPYKCPECGKSFS [G10R], the protein stability index came out at 2.46. The same measure for LLRHQRIHTGERPYKCPECGCSFS [K21C]: 2.11; for LLRHQRIHTGERPYKCPECGTSFS [K21T]: 2.16; for LLRHQRIHTGERPYKCPECGHSFS [K21H]: 2.82. As for LLRHQRIHTGERPYKCPECGRSFS [K21R], the protein stability index was determined as 2.01.

For LLRHQRIHTGERPYKCPECGESFS [K21E], the protein stability index was 2.53.

With LLRHQRIHTGERPYKCPECGSSFS [K21S], the protein stability index was 1.84. The same measure for LLRHQRIHTGERPYKCPECGFSFS [K21F]: 1.82. The same measure for LLRHQRIHTGEMPYKCPECGKSFS [R12M]: 2.08.

With LLRHQRIHTGEPPYKCPECGKSFS [R12P], the protein stability index was 2.52. Take LLRHQRIHTGETPYKCPECGKSFS [R12T]: the protein stability index was 2.45. The figure for LLRHQRIHTGEIPYKCPECGKSFS [R12I] is 2.64; for LLRHQRIHTGEWPYKCPECGKSFS [R12W] it is 1.7.

Regarding LLRHQRIHTGEKPYKCPECGKSFS [R12K], the protein stability index is 2.43. The same measure for LLRHQRIHTGEYPYKCPECGKSFS [R12Y]: 2.6; for LLRHQRIHTGERRYKCPECGKSFS [P13R]: 1.72. The same measure for LLRHQRIHTGERIYKCPECGKSFS [P13I]: 1.87; for LLRHQRIHTGERMYKCPECGKSFS [P13M]: 2.5.

Regarding LLRHQRIHTGERDYKCPECGKSFS [P13D], the protein stability index was determined as 2.11. The figure for LLRHQRIHTGERCYKCPECGKSFS [P13C] is 2.16; for LTRHQRIHTGERPYKCPECGKSFS [L2T] it is 2.71; for LHRHQRIHTGERPYKCPECGKSFS [L2H] it is 3.11. The figure for LIRHQRIHTGERPYKCPECGKSFS [L2I] is 1.78. The same measure for LERHQRIHTGERPYKCPECGKSFS [L2E]: 3.61; for LDRHQRIHTGERPYKCPECGKSFS [L2D]: 3.39; for LGRHQRIHTGERPYKCPECGKSFS [L2G]: 2.76. In the case of LFRHQRIHTGERPYKCPECGKSFS [L2F], the protein stability index stood at 3.31.

(Values after the supplement of paper PMC10567573.)
